The values below are quoted from earlier work in paper PMC5431918 (Scientific Reports, 2017).

On the data set, the source says:
As PAC1, VPAC1 and VPAC2 mRNAs were detected in a rat insulinoma cell line with PAC1 binding prevailing over that of VPAC1 and VPAC2[23], the PAC1 receptor seemed to be a promising alternative for targeting insulinomas. The natural mammalian ligands at the PAC1 receptor are PACAP38 and the truncated form PACAP27. They bind to PAC1, ...

On to “PACAP27: truncated form of PACAP38; non-selective PAC1/VPAC1/VPAC2 ligand”, for which the Stability in plasma entry is recorded as “unstable in plasma”.
For the substance “PACAP38: natural mammalian ligand at the PAC1 receptor; non-selective PAC1/VPAC1/VPAC2 ligand”, the Stability in plasma result was “unstable in plasma”.
